# Test results reported in the RNAGym collection of RNA variant scans (doi:10.1073/pnas.2313332121).
# Fewer inactive variants are shown than the library holds.
# B1: TPR 5TU (parent)
# chain: GGAUCUUCUCGAUCUAACAAAAAAGACAAAUCUGCCACAAAGCUUGAGAGCAUCUUCGGAUGCAGAGGCGGCAGCCUUCGGUGGCGCGAUAGCGCCAACGUUCUCAACUAUGACACGCAAAACGCGUGCUCCGUUGAAUGGAGUUUAUCAUG
# Variants of: B1
# Experiment: polymerase ribozyme fitness, log enrichment relative to wild type (log ratio); higher = more active; in vitro selection for triplet polymerase activity
# In short: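 Both subunits of a heterodimeric triplet polymerase ribozyme were given their own mutant library, built by PCR and transcribed. Each library was annealed with a biotinylated primer, the partner subunit and triplets, incubated frozen at −7 °C, and its extended constructs gel-excised, captured on streptavidin beads and amplified by RT-PCR, all in one round done in triplicate. Fitness is the logarithm of genotype enrichment relative to wild-type enrichment, with replicates averaged by inverse-variance weighting. That logarithm is base 2, and Illumina-sequenced genotypes needed ≥10 input reads and ≥1 read per output.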
row,Variant,polymerase ribozyme fitness (log ratio)
1,C93U C95U C149A,≤ -4.2
2,C95U U145A,0.0594
3,C93U C116U A122U,-1.45
4,G94C G126A,0.311
5,C96A A137U,-3.87
6,G94U U101G A120U A142U,-2.08
7,G94U A150G,-2.5
8,G94U A150U,-0.849
9,C93U A142U,-1.68
10,C93U A142C,-0.842
11,C93U A110U,-4.1
12,C95U C116A C129G U148G,≤ -4.2
13,C96U U104G C129G,-2.81
14,C96A C105G,-1.4
15,C96A C105U,0.343
16,C96G A142C,-1.82
17,C96G A110G,-3.11
18,C95A C108G,≤ -4.2
19,C96G C99G C116A A147C,≤ -4.2
20,C96A G136A,-0.205
21,G94U G141C,-1.45

row,Variant,polymerase ribozyme fitness (log ratio)
1,C96A C105G C125A,-2.29
2,C96U U151G,-4.05
3,C93U C116U,-0.9
4,A97U,-0.75
5,A97C,0.773
6,A97G,-0.12
7,A98U A115U A121G U127G,-3.32
8,C93U U101A,-2.19
9,C93U G141C,-1.55
10,C93U G141U,-0.142
11,C96A G126A U139G U151C,≤ -4.2
12,C93U C103A C105U A120G U134C,-3.94
13,C96A C132G,-3.72
14,C95A A120G A138G,-2.96
15,C93U U148A,-3.85
16,A97U U139A U144A,-4.08
17,A97U C99G,-1.6
18,A98G G128A,-3.02
19,G94C C105A,-1.22
20,C95G C96U A120U A122C U139G,-1.86
21,C95U C96U G124U G136C,-3.61

row,Variant,polymerase ribozyme fitness (log ratio)
1,G94A C108A A137C,≤ -4.2
2,C99A A115U A120G,-2.43
3,C96G A119U,-2.52
4,C93U U144G,-0.253
5,C93U U144C,-1.07
6,G94A U151A,≤ -4.2
7,G94U A97G U127A A150U,≤ -4.2
8,C96U A119C G141A,0.872
9,C96G A121C C129U,-0.0949
10,G94C A97U,-2.45
11,G94A C96U C99G U144G,≤ -4.2
12,C96A U104A G124C,-1.19
13,C96G A107G,≤ -4.2
14,G94A G117U,-0.469
15,A97G G141C,-1.86
16,G94C U145G,-0.944
17,A97G U130G,-2.77
18,A97U G124U,-1.05
19,C95U G100U U104G C114U G141C A150C,≤ -4.2
20,A97G U102A C129A,-3.98
21,A97G A150G,-2.82

row,Variant,polymerase ribozyme fitness (log ratio)
1,A97G A150C,-2.96
2,A98U G136C,-3.87
3,C96G A142U U146A,-1.97
4,C95U C99G U104G A110G C116A A142U,≤ -4.2
5,C93U C118A C125A U139C,-4.16
6,C96A U101C U109A C118A,-1.54
7,C96G A122U A142U,-1.45
8,A98G A115G U135G,-3.81
9,C93U G117A A142C,-4.07
10,G94A C96G,-2.1
11,C96U A113U G124U,-2.41
12,C93U C125A,-2.69
13,C93U C125G,-1.79
14,C96U U145A A150U,0.912
15,C95U C123U,0.509
16,C93U G117C C125A,-0.271
17,A98G A120G,-0.401
18,C96U,-0.258
19,C96A,-0.52
20,C96G,-0.496
